According to the Human Domainome abundance scans (Beltran et al. 2025):
± gives the uncertainty stated by the source.

B1: Homeobox protein cut-like 2, residues 895 to 963; numbered along this chain, O14529 (parent)
chain: EVDTLELTRQVKEKLAKNGICQRIFGEKVLGLSQGSVSDMLSRPKPWSKLTQKGREPFIRMQLWLSDQL

Variants of: B1
Assay: abundance fitness (aPCA) (normalised: wild type 0, dead -1); higher = more abundant; growth selection in yeast, the domain comes from the species named
Details: Homo sapiens

| Variant | abundance fitness |
| --- | --- |
| S66F | -0.2 ± 0.053 |
| E56F | -0.362 ± 0.066 |
| Q68R | -0.057 ± 0.044 |
| L32M | -0.032 ± 0.053 |
| G35K | 0.124 ± 0.043 |
| W47Q | -0.84 ± 0.058 |
| S38K | 0.06 ± 0.024 |
| K45Q | -0.132 ± 0.059 |
| G26T | -0.221 ± 0.063 |
| G54S | -0.092 ± 0.032 |
| T4Y | -0.468 ± 0.068 |
| L41Y | -0.418 ± 0.053 |
| Q52L | -0.025 ± 0.032 |
| G35I | -0.215 ± 0.062 |
| S66Q | 0.002 ± 0.035 |
| E6V | -0.191 ± 0.028 |
| S33T | -0.036 ± 0.048 |
| G31A | -0.226 ± 0.042 |
| K14R | -0.062 ± 0.067 |
| L69H | -0.182 ± 0.17 |
| G19L | -0.31 ± 0.025 |
| R43Y | 0.017 ± 0.078 |
| S38F | -0.221 ± 0.26 |
| K14M | 0.066 ± 0.033 |

| Variant | abundance fitness |
| --- | --- |
| L65A | -0.694 ± 0.093 |
| K28L | -0.335 ± 0.027 |
| V2K | 0.017 ± 0.053 |
| W47A | -0.81 ± 0.06 |
| S36D | 0.134 ± 0.051 |
| N18W | -0.102 ± 0.041 |
| L50A | -0.748 ± 0.049 |
| L30Q | -0.423 ± 0.061 |
| M40R | -0.145 ± 0.038 |
| P57E | -0.139 ± 0.1 |
| T4E | -0.208 ± 0.041 |
| L30M | -0.178 ± 0.036 |
| E13I | -0.139 ± 0.056 |
| K45W | -0.313 ± 0.24 |
| K53I | -0.037 ± 0.27 |
| T8W | -0.206 ± 0.032 |
| D39T | -0.17 ± 0.11 |
| L41H | -0.37 ± 0.05 |
| L69M | -0.007 ± 0.049 |
| S36R | -0.097 ± 0.056 |
| R60I | -0.653 ± 0.091 |
| S36G | -0.34 ± 0.089 |
| V37L | 0.016 ± 0.027 |
| T51L | -0.082 ± 0.033 |

| Variant | abundance fitness |
| --- | --- |
| R9E | -0.1 ± 0.034 |
| V2E | -0.019 ± 0.047 |
| R43G | -0.233 ± 0.042 |
| Q22K | -0.095 ± 0.064 |
| G31F | -0.317 ± 0.049 |
| E13P | -0.135 ± 0.049 |
| R23H | -0.094 ± 0.096 |
| F25T | -0.449 ± 0.063 |
| V11T | -0.171 ± 0.049 |
| P46C | -0.319 ± 0.079 |
| K17C | -0.2 ± 0.083 |
| I20G | -0.412 ± 0.057 |
| G26K | -0.207 ± 0.049 |
| E13V | -0.235 ± 0.041 |
| C21S | 0.082 ± 0.043 |
| L50T | -0.808 ± 0.063 |
| L50R | -1.11 ± 0.094 |
| L5D | -0.146 ± 0.048 |
| M40P | -0.251 ± 0.037 |
| M61A | -0.093 ± 0.041 |
| G19Y | -0.122 ± 0.057 |
| F25Y | -0.779 ± 0.1 |
| L30D | -0.588 ± 0.048 |
| L5T | 0.015 ± 0.032 |

| Variant | abundance fitness |
| --- | --- |
| T8S | -0.115 ± 0.031 |
| K17D | -0.175 ± 0.05 |
| I24S | -0.084 ± 0.036 |
| K53E | -0.017 ± 0.05 |
| Q22G | -0.354 ± 0.049 |
| L63D | 0.07 ± 0.12 |
| I24K | -0.084 ± 0.051 |
| G19P | -0.005 ± 0.15 |
| K49N | -0.16 ± 0.051 |
| K53M | -0.373 ± 0.098 |
| F25L | -0.351 ± 0.033 |
| Q68L | -0.052 ± 0.03 |
| A16P | -0.18 ± 0.038 |
| L15M | 0.053 ± 0.034 |
| V29R | -0.121 ± 0.031 |
| R9C | -0.21 ± 0.042 |
| S38H | 0.005 ± 0.03 |
| M61R | -0.935 ± 0.046 |
| V37C | -0.031 ± 0.038 |
| E6G | -0.111 ± 0.027 |
| L7K | 0.032 ± 0.04 |
| K12V | -0.366 ± 0.036 |
| L5S | -0.231 ± 0.03 |
| I20E | -0.575 ± 0.061 |

| Variant | abundance fitness |
| --- | --- |
| G54H | -0.215 ± 0.074 |
| L5A | 0.028 ± 0.028 |
| L63E | 0.037 ± 0.11 |
| G35Y | -0.125 ± 0.043 |
| L15I | -0.084 ± 0.047 |
| R23F | -0.009 ± 0.056 |
| P44N | -0.385 ± 0.11 |
| I20Y | -0.179 ± 0.049 |
| D67Q | 0.057 ± 0.068 |
| M61Y | -1 ± 0.18 |
| L65M | -0.294 ± 0.034 |
| M40Q | -0.29 ± 0.063 |
| Q62V | -0.367 ± 0.046 |
| V37Y | -0.257 ± 0.06 |
| K12E | -0.348 ± 0.074 |
| W47G | -1.01 ± 0.14 |
| Q10N | -0.128 ± 0.046 |
| N18Y | -0.128 ± 0.057 |
| K12M | -0.237 ± 0.037 |
| S66A | -0.045 ± 0.069 |
| L69N | -0.058 ± 0.13 |
| A16D | -0.055 ± 0.067 |
| L63K | 0.113 ± 0.063 |
| S66D | 0.094 ± 0.24 |

| Variant | abundance fitness |
| --- | --- |
| K28Y | -0.296 ± 0.047 |
| E1F | -0.079 ± 0.17 |
| Q34A | 0.088 ± 0.081 |
| K28P | -0.6 ± 0.04 |
| S36I | 0.027 ± 0.036 |
| T51C | -0.375 ± 0.26 |
| K14L | 0.009 ± 0.027 |
| E1K | -0.026 ± 0.067 |
| E13Q | -0.248 ± 0.053 |
| L41K | -0.193 ± 0.032 |
| V11N | -0.153 ± 0.083 |
| E27I | -0.128 ± 0.036 |
| P57C | -0.139 ± 0.14 |
| W47N | -0.895 ± 0.14 |
| V11A | -0.224 ± 0.041 |
| R60Y | -0.633 ± 0.1 |
| P57L | 0.087 ± 0.029 |
| L69Q | -0.092 ± 0.074 |
| I24P | -0.934 ± 0.12 |
| R55L | -0.486 ± 0.029 |
| P57G | -0.456 ± 0.32 |
| F58K | -1.11 ± 0.18 |
| I24D | -0.047 ± 0.12 |
| L69C | -0.054 ± 0.059 |

| Variant | abundance fitness |
| --- | --- |
| P44I | -0.113 ± 0.056 |
| K17N | -0.011 ± 0.074 |
| L50C | -0.488 ± 0.092 |
| N18V | -0.075 ± 0.043 |
| V2M | 0.077 ± 0.038 |
| R23C | -0.317 ± 0.091 |
| E27T | -0.149 ± 0.044 |
| A16Y | -0.234 ± 0.1 |
| K12Q | -0.358 ± 0.061 |
| R43W | -0.191 ± 0.049 |
| T4K | -0.14 ± 0.035 |
| G26I | -0.284 ± 0.05 |
| K49I | -0.112 ± 0.042 |
| E56R | -0.157 ± 0.04 |
| G26W | -0.591 ± 0.035 |
| L5N | 0.046 ± 0.058 |
| E56C | -0.843 ± 0.069 |
| D67R | -0.008 ± 0.083 |
| K17Q | 0 ± 0.051 |
| V11R | -0.125 ± 0.029 |
| Q34F | 0.003 ± 0.04 |
| R55G | -0.674 ± 0.06 |
| F25M | -0.462 ± 0.046 |
